Assay [1] addresses T1, Decoy c-Met (extracellular domain of human c-Met) (human, UniProt P08581 25-932).
T1 construct: extracellular domain; also called Decoy Met; monomeric Decoy Met
Nature of the assay: binding ELISA, human c-Met (Decoy). (In general: ELISA stands for enzyme-linked immunosorbent assay.)

In assay [2] the target is T2, Rhesus (Maccaca mulatta, US20090191580-5) c-Met ECD (Rhesus (Maccaca mulatta)).
T2 construct: extracellular domain; also called Rhesus c-Met ECD; Rhesus ECD
Nature of the assay: binding ELISA, Rhesus c-Met ECD immobilised (1 µg/ml). The procedure:
Cross reactivity to Rhesus (Maccaca mulatta, US20090191580_{—}5) c-Met ECD and mouse c-Met (R&D systems cat no: 527-ME) was performed in a binding ELISA. Rhesus ECD was immobilized in PBS (1 μg/ml) on a 96-well maxisorb plate and incubated at 4° C. over night. After blocking with 1% casein in PBS, the antibodies in dilutions starting with 10 μg/ml were added and allowed to bind for 1 h at room temperature. The plate was washed and a goat anti-human Fcγ antibody (Jackson) was added and incubated for 1 h at room temperature. After washing, TMB was added and the plate read at 620 nm

Assay [3] concerns the target T1, Decoy c-Met (extracellular domain of …). The experiment in a line: ELISA: c-Met ectodomain coated at 1 µg/ml on maxisorb plate; mAb in three-fold dilutions from 1 µg/ml, 1 h RT; HRP-conjugated Protein A, TMB, OD 450.
Assay [4] concerns the target T3, c-Met SEMA ectodomain (human, UniProt P08581 27-515).
T3 construct: domain: SEMA; also called SEMA domain
Described as above.

Assay [5] addresses T4, c-Met SEMA-PSI ectodomain (human, UniProt P08581 25-562, limits assumed).
T4 construct: domain: SEMA-PSI
Described as above.

The target of assay [6] is T5, recombinant dimeric c-Met (R&D systems, 358-MT/CF) (human, UniProt P08581 25-932).
T5 construct: Bought product; also called Fc-Met; recombinant c-Met
T5 sequence (P08581 25-932 limits assumed): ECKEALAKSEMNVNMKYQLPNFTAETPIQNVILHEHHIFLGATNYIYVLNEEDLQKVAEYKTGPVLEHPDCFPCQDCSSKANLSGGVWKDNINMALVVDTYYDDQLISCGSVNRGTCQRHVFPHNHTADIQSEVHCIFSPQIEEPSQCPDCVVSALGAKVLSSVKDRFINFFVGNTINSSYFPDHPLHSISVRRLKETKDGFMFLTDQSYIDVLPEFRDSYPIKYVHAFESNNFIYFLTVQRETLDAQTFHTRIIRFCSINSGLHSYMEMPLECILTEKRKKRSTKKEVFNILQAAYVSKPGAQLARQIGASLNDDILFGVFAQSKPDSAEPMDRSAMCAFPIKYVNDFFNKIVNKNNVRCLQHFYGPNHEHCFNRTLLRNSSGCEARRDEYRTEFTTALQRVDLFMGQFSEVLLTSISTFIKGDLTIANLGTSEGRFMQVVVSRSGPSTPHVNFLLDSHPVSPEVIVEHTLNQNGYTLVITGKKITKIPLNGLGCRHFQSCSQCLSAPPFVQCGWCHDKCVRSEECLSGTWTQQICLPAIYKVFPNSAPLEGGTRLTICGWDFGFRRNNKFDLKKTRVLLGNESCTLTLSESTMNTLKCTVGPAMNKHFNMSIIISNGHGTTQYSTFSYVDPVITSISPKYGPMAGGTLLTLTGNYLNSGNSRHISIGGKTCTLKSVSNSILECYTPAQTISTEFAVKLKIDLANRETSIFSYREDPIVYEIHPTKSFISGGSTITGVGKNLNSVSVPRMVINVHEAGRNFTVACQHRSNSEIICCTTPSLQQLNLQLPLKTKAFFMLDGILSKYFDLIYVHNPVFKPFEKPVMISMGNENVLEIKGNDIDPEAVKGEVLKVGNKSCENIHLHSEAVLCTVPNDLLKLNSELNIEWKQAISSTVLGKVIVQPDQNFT
Nature of the assay: competition ELISA: recombinant dimeric c-Met (100 ng/ml) captured by coated mouse anti-His antibody; antibody dilutions 30 min, then 25 ng/ml N-terminally biotinylated HGF (the competitor); strep-HRP, TMB, 620 nm; percent competition against the controls. The protocol:
Competition with N-terminally biotinylated HGF for binding to immobilized c-Met was performed using an ELISA-based competition assay. Five μg/ml mouse anti-His antibodies (Serotech) was immobilized on a maxisorb plate and, after blocking with 1% casein in PBS for 2 h, 100 ng/ml recombinant dimeric c-Met was added and incubated for 1 h at room temperature. After washing, dilutions of the antibodies were added and allowed to bind to the captured c-Met for 30 minutes, before 25 ng/ml N-terminally biotinylated HGF (R&D systems, 294-HGN/CF) was added. Biotinylated HGF was incubated at room temperature for 1 h before washing. Horseradish-conjugated streptavidin (strep-HRP) was added and incubated for an additional hour. TMB was added and the plate read at 620 nm. An isotype control (hIgG1λ) was included as a control as well as murine 5D5 antibody. Competition was expressed as percentage competition as compared to the controls (strep-HRP only or hIgG1λ) and plotted against the concentration of antibodies. An IC₅₀ was calculated using GraphPad Prism (Table 10). Antibodies 13E6 and 20A11 only displaced HGF partially (about 50%), which may be related to the epitope these two mAbs recognize on the c-Met.

Assay [7] has as its target T1, Decoy c-Met (extracellular domain of …). The experiment in a line: SPR: mAb (0.5 µg/ml) kept 1 h at the given temperature, run over a CM-5 chip coupled with 15,000-17,000 RU Decoy c-Met; slope between 100 and 130 s at 30 µl/min in percent of the sample kept at 4 °C.
Assay [8] concerns the target T3, c-Met SEMA ectodomain. The experiment in a line: ELISA on immobilised c-Met ectodomains.
In assay [9] the target is T4, c-Met SEMA-PSI ectodomain. Nature of the assay: ELISA on immobilised c-Met ectodomains.
In assay [10] the target is T6, c-Met SEMA-PSI-IPT1-2 ectodomain (human, UniProt P08581 25-741, limits assumed).
T6 construct: domain: SEMA-PSI-IPT1-2; also called IPT1-2 (as recognised domain)
T6 sequence (P08581 25-741 limits assumed): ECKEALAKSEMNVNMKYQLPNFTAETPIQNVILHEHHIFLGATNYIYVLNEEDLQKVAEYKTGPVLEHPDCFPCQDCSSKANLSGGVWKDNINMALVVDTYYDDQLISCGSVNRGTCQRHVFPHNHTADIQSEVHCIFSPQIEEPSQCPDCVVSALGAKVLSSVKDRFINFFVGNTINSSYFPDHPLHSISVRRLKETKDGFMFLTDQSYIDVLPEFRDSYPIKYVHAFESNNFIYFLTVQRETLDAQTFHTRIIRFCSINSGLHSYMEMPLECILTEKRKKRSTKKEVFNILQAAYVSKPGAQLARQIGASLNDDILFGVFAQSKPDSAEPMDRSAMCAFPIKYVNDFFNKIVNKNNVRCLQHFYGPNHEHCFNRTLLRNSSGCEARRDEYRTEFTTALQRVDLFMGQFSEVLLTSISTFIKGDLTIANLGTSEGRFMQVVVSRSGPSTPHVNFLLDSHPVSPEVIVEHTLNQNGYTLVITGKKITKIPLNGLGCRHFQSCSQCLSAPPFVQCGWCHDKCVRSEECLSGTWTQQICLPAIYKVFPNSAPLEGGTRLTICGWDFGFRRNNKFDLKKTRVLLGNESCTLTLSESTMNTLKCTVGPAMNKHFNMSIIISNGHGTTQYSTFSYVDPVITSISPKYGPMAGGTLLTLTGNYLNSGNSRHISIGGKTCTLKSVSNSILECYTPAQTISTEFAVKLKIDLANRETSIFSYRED
The experiment in a line: ELISA on immobilised c-Met ectodomains.

The target of the next assay is T7, c-Met IPT3-4 ectodomain (human, UniProt P08581 742-932, limits assumed).
T7 construct: domain: IPT3-4
T7 sequence (P08581 742-932 limits assumed): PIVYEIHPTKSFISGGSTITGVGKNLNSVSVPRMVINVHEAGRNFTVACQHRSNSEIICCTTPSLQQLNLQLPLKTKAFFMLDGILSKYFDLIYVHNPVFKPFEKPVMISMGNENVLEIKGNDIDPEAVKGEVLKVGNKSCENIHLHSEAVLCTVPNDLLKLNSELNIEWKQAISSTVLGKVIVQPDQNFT
Nature of the assay: ELISA on immobilised c-Met ectodomains.

Assay [11] concerns the target T8, human c-Met ECD (aa 25-932) with His tag (human, UniProt P08581 25-932).
T8 construct: range 25-932; Soluble protein from HEK293 cells; also called human c-Met (WT); not shown: His tag
The experiment in a line: ELISA: 200 ng of the c-Met ECD protein coated on maxisorb plates; mAb dilutions 1 h RT; HRP-conjugated goat anti-human antibody, TMB, OD 620 nm.

As usually defined, the EC50 is the concentration at which the effect is half-maximal. High values mean a need for much substance, low ones an effect from little substance. By EC50 (read off the curve) is commonly meant the concentration that produces a half-maximal response. Low values mean a more potent agent, high ones a less potent agent.

T4 sequence (P08581 25-562 limits assumed): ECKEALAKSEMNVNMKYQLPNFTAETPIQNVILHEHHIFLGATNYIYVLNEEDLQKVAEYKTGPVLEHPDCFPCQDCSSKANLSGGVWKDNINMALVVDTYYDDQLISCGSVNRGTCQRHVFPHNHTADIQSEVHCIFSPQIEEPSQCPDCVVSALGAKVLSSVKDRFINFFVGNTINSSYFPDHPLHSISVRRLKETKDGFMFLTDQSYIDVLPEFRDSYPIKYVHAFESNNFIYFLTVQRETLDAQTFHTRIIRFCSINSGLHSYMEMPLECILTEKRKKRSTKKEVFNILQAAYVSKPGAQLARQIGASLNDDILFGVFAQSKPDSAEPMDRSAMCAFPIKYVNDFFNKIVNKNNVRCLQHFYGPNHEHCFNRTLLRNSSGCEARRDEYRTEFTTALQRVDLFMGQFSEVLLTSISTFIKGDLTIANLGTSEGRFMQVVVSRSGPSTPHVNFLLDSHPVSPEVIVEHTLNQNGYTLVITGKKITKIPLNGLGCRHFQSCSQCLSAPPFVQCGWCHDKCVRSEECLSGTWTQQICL
T1 sequence (P08581 25-932): as the sequence (P08581 25-932 limits assumed) above
T3 sequence (P08581 27-515): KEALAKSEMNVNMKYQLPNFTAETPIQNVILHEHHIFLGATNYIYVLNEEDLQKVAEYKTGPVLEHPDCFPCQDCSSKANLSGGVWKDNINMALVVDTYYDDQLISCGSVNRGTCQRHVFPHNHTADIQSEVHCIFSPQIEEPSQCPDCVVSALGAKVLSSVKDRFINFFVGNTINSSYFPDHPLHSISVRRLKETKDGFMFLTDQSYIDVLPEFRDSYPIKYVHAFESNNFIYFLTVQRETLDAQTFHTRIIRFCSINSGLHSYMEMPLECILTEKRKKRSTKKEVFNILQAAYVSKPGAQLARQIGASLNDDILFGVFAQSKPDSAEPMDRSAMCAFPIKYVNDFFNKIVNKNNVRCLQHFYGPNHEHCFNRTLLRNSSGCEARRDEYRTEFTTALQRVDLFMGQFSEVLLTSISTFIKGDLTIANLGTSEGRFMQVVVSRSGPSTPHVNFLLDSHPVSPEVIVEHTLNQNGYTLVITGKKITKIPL
T8 sequence (P08581 25-932 limits assumed): as the sequence (P08581 25-932 limits assumed) above

B1: 40B8 mAb (antibody, V domains shown)
VH: EVQLVQPGAELRNPGASVKVSCKASGYTFTNYVIDWVRQAPGQGLEWMGRIDPENGGTRYAQKFQGRVTFTADTSTSTAYVELSNLRSEDTAVYYCARLEDYELAYDYWGQGTQVTVSS
VL: DIVMTQTPSSVTASAGEKVTINCKSSQSVLLSSNQKNYLAWYQQRLGQSPRLLIYWASTRESGVPDRFSGSGSTTDFTLTISSFQPEDAAVYYCQQGVSFPLTFGQGTKVELK
Consider B1, for which the values for the EC50 in [1] and in assay [2] were 0.14 nM and 0.13 nM, respectively. Further, the “EC50 (read off the curve)” value in assay [3] is about 0.03 µg/mL. Besides, the binding result (with c-Met SEMA ectodomain [4]; in assay [5]) was “no binding (tested: 1000 ng/ml)” throughout. For the same molecule, the “IC50 (read off the curve)” value in [6] was about 0.08 nM.

B2: 56F3 (antibody, V domains shown)
VH: EVQLVQPGAEVKKPGASVKVSCKASGYIFTMNSIDWVRQAPGQGLEWMGRIDPEEGGTKYAQKFQGRVTMTADTSTSTAYMELSSLRSDDTAVYYCARVDDYYLGYDYWGQGTQVTVSS
VL: DIVMTQSPDSLAASLGERVTINCKSSQSVLFSSNQKNYLAWYQQRPGQSPKLLIYWASIRESGVPDRFSGSGSGTDFTLTISSLQAEDVAVYYCQQGYSFPYSFGSGTRLEIK
notes: also called germlined variant of 48A2
For the molecule B2, the binding result in [7] is reported as “binds”.

B3: 20A11 mAb (antibody, V domains shown)
VH: QVQLVESGGGLVQPGGSLRLSCAASGFTFDDYAMSWVRQAPGKGLEWVSAISWNGSSTYYAESMKGRFTISRDNAKNTLYLQMNSLKSEDTAVYYCAKDLIGSHDYWGQGTQVTVSS
VL: QAVLTQPPSVSGTLGKTLTISCAGTSSDVGYGNYVSWYQQLPGTAPKLLIYAVSTRASGIPDRFSGSKSGNTASLTISGLQSEDEADYYCASYRSSNNYAFGAGTKLTVL
Turning to B3, the binding result (with c-Met SEMA ectodomain [8]; in assay [9]; in assay [10]; with c-Met IPT3-4 ectodomain) was “no binding (tested: 1 µg/ml)” throughout. Further, the EC50 in [1] was 4.3 nM; in assay [2], 3.4 nM.

B4: 13E6 mAb (antibody, V domains shown)
VH: QVQLQESGGDLVQPGGSLRLSCAASGFTFDDYVMNWVRQAPGKGLEWISAINWNGGSTYYAESMKGRFTISRDNAKNTLYLQMYSLQSDDTAVYYCVKDTVVSGNGYWGQGTQVTVSS
VL: QSVLTQPPSVSGTLGKTVTISCAGTSSDIGDYNYVSWYQQLPGTAPKLLIYDVNKRASGIPDRFSGSKSGNTASLSISGLQSEDEADYYCASYRSRNDYAFGGGTKLTVL
B4: the binding result (with c-Met SEMA ectodomain [8]; in assay [9]; in assay [10]; with c-Met IPT3-4 ectodomain) was “no binding (tested: 1 µg/ml)” throughout. Also, the EC50 in [1] and in [2] was 0.19 nM each time. Moreover, in [11], the “EC50 (read off the curve)” value was about 1 nM.
